Results taken from patent US20210230273A1 (Alexion, published 2021).
Numbering of substitutions follows the chain as printed.

T1: cell surface CD200 (human, UniProt P41217 31-278)
T1 construct: whole, on cells; also called CD200 on CD200 expressing Raji cells; CD200+ Raji cells
T1 sequence (looked up): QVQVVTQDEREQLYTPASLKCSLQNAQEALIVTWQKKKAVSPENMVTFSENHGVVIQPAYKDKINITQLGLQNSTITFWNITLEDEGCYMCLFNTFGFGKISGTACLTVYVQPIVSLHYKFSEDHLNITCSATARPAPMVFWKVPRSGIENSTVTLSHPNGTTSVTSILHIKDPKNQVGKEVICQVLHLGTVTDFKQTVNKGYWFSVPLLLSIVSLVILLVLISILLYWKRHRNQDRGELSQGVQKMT

B1: TPP-100 (Fab, V domains shown)
VH: EVQLQQSGPELVKPGASLKMSCKASGYSFTDYIILWVKQNHGKSLEWIGHIDPYYGSSNYNLKFKGKATLTVDKSSSTAYMQLNSLTSEDSAVYYCGRSKRDYFDYWGQGTTLTVSS
VL: DIQMTQSPSSMYASLGERVTITCKASQDINSYLSWFQQKPGKSPKTLIYRANRLVDGVPSRFSGSGSGQDYSLTISSLEYEDMGIYYCLQYDEFPYTFGGGTKLEIK
B2: TPP-101 (Fab, V domains shown)
VH: QVQLQQSGSELKKPGASVKISCKASGYSFTDYIILWVRQNPGKGLEWIGHIDPYYGSSNYNLKFKGRVTITADQSTTTAYMELSSLRSEDTAVYYCGRSKRDYFDYWGQGTTLTVSS
VL: DIQMTQSPSSLSASIGDRVTITCKASQDINSYLSWFQQKPGKAPKLLIYRANRLVDGVPSRFSGSGSGTDYTLTISSLQPEDFAVYYCLQYDEFPYTFGGGTKLEIK
B3: TPP-709 (Fab, V domains shown)
VH: QVQLVQSGAEVKKPGASVKVSCKASGYSFTDYIILWVRQAPGQRLEWMGHIDPYYGSSNYNLKFKGRVTITRDTSASTAYMELSSLRSEDTAVYYCGRSKRDYFDYWGQGTLVTVSS
VL: B2 VL with I15V, L46S, Y71F, A84G, V85T, G100Q
B4: TPP-751 (Fab, V domains shown)
VH: B3 VH
VL: B2 VL with I15V, L46S, Y71F, V85T, G100Q
B5: TPP-741 (Fab, V domains shown)
VH: B3 VH with M48I, G97A
VL: B2 VL with I15V, L46S, Y71F, V85T, G100Q
B6: TPP-139 (Fab, V domains shown)
VH: QVQLVQSGSELKKPGASVKVSCKASGYSFTDYIILWVRQAPGQGLEWMGHIDPYYGSSNYNLKFKGRFVFSLDTSVSTAYLQISSLKAEDTAVYYCARSKRDYFDYWGQGTLVTVSS
VL: B2 VL with I15V, L46S, Y71F, V85T, G100Q
B7: TPP-103 (Fab, V domains shown)
VH: B3 VH with R44G, I70M, A76T, A79V, G97A
VL: B2 VL with I15V, L46S, Y71F, V85T, G100Q
B8: TPP-111 (Fab, V domains shown)
VH: B3 VH with R44G, I70M, R72T, A76T, S84R, E89D, G97A
VL: B2 VL with I15V, L46S, Y71F, V85T, G100Q
B9: TPP-123 (Fab, V domains shown)
VH: B3 VH with P41T, R44G, I70M, D73N, A76I, G97A
VL: B2 VL with I15V, L46S, Y71F, V85T, G100Q
B10: TPP-115 (Fab, V domains shown)
VH: B3 VH with R44G, I70M, A76I, S85R, E89D, G97A
VL: B2 VL with I15V, L46S, Y71F, V85T, G100Q
B11: TPP-135 (Fab, V domains shown)
VH: B3 VH with V2M, A9P, A16T, P41R, M48I, T74M, A76T, G97A, R98A
VL: B2 VL with I15V, L46S, Y71F, V85T, G100Q
B12: TPP-131 (Fab, V domains shown)
VH: B3 VH with V2M, P14T, A16S, R44A, T74R, A76M, V93M, G97A
VL: B2 VL with I15V, L46S, Y71F, V85T, G100Q
B13: TPP-107 (Fab, V domains shown)
VH: B3 VH with A16S, R44G, R72A, T74E, A76T, G97A
VL: B2 VL with I15V, L46S, Y71F, V85T, G100Q
B14: TPP-1143 (antibody, human IgG2, kappa, V domains shown)
VH: B3 VH
VL: DIQMTQSPSSLSASVGDRVTITCKASQDINSYLSWFQQKPGKAPKSLIYRANRLVDGVPSRFSGSGSGTDFTLTISSLQPEDFGTYYCLQYDEFPYTFGQGTKLEIKR
notes: mAb with human G2G4 Fc (effectorless); also called TPP-11143 (as printed once)
B15: samalizumab (antibody, human IgG2, kappa, V domains shown)
VH: B2 VH
VL: B14 VL with V15I, S46L, F71Y, G84A, T85V, Q100G
notes: Humanized anti-human CD200 mAb with G2/G4 constant region; also called ALXN6000; TPP-309

The binders below were run against recombinant human CD200 Fc Chimera (human) (UniProt P41217) (assay: SPR (Biacore), CD200 captured by anti-Fc (human) on CM5, Fab injected).

Row | Kd [nM] | koff [s⁻¹] | kon [M⁻¹ s⁻¹] | fold better affinity than mouse parental c2aB7 (TPP-100 Fab) [fold] | fold better affinity than samalizumab (TPP-101 Fab) [fold] | Binder
1 | 0.442 | 0.000747 | 1.69e+06 | – | – | B1
2 | 6.01 | 0.0175 | 2.91e+06 | – | – | B2
3 | 0.132 | 0.00024 | 1.82e+06 | 3 | 45 | B3
4 | 0.104 | 0.00022 | 2.11e+06 | 3 | 45 | B4
5 | 0.407 | 0.000707 | 1.74e+06 | – | – | B5

The binders below were run against recombinant human CD200 Fc Chimera (human) (UniProt P41217) (assay: SPR (Biacore 3000), CD200-Fc captured by anti-human Fc on CM5, Fab injected, 1:1 Langmuir).

Row | Kd [nM] | koff [s⁻¹] | kon [M⁻¹ s⁻¹] | Binder
6 | 0.488 | 0.000739 | 1.51e+06 | B1
7 | 5.53 | 0.0148 | 2.67e+06 | B2
8 | 3.71 | 0.00368 | 993000 | B6
9 | 10.1 | 0.00704 | 694000 | B7
10 | 5.08 | 0.00625 | 1.23e+06 | B8
11 | 4.36 | 0.00487 | 1.12e+06 | B9
12 | 4.04 | 0.0053 | 1.31e+06 | B10
13 | 15.7 | 0.0146 | 930000 | B11
14 | 0.887 | 0.00235 | 2.65e+06 | B12
15 | 4.64 | 0.0041 | 885000 | B13

Each binder was assayed against T1, cell surface CD200 (assay: flow cytometry, inhibition of labelled CD200R-Fc binding to CD200+ Raji cells; n = 1).
Excerpt: (§1) Next, the abilities of the newly-engineered anti-CD200 antibodies to antagonize CD200R were compared with that of samalizumab using CD200+ Raji cells. […] Binding of labeled CD200R-Fc was detected by flow cytometry.

Row | EC50 [nM] | Binder
16 | 0.186 | B14

The binders below were run against T1, cell surface CD200 (assay: flow cytometry, inhibition of labelled CD200R-Fc binding to CD200+ Raji cells; mean ± SD).
Excerpt: as §1

Row | EC50 [nM] | Binder
17 | 0.46 | B15

The binders below were run against T1, cell surface CD200 (assay: whole-blood CD200 receptor occupancy by flow cytometry, T cells (CD3+); unlabelled antibody incubated overnight, free CD200 against total CD200 (1B2-AF647)).
Protocol: (§2) Whole blood (including sodium heparin as anticoagulant) was added at 250 μL/FACs tube and sealed. Tubes were incubated at 25° C. in a temperature-controlled cabinet overnight to allow therapeutic antibody binding.
(§3) FACS Antibody Staining: Cells were blocked with Fc blocking reagent for 30 min. Red blood cells were lysed with hemolytic buffer; remaining cells were spun 800×g for 5 minutes, and the resulting cell pellet was washed twice with PBS. After final wash, cell pellets were resuspended into 200 μL PBS. Cells were stained with a fixable Live/Dead dye for 20 minutes protected from light, and then neutralized and washed with FACS buffer. After the final wash the cells were resuspended in 100 μL wash with FcR block. Labeled antibody cocktail mixes were prepared CD3-PE/CD19-FITC/Alexa-647 or CD3-PE/CD19-FITC/1B2-647 in blocking buffer as well as appropriate controls (single color and FMO). The appropriate amount of antibody was added and incubated with cells protected from light for 30 minutes at room temperature. […]
(§4) FACS Analysis: Data was acquired on an automated cell analyzer (BD Fortessa) by gating on lymphocytes, and single live cells followed by B cell (CD19+-FITC) and T cells (CD3-PE) populations. […] Percent receptor occupancy was calculated from the MFI (median fluorescence intensity) according to the following formula: […]

Row | EC50 (read off the curve) [ng/mL] | Binder
18 | ~4 | B14

The binders below were run against T1, cell surface CD200 (assay: whole-blood CD200 receptor occupancy by flow cytometry, B cells (CD19+); unlabelled antibody incubated overnight, free CD200 against total CD200 (1B2-AF647)).
Protocol: as §2, §3, §4

Row | EC50 (read off the curve) [ng/mL] | Binder
19 | ~4 | B14
